Test results from the supplement of paper PMC12764529.
± gives the half width of the 95% confidence interval.

assay: folding stability dG unfold (combined trypsin and chymotrypsin); higher = more stable
Procedure, shortened: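 Sequencing followed digestion of designed mini-proteins with trypsin and chymotrypsin, each at 11 concentrations in threefold dilutions together with a no-protease condition. The mini-proteins were under 80 residues, had no cysteine, sat in a PA-tagged cDNA display construct, and were kept only if AlphaFold2 dimer inter-PAE was above 15. From the counts, Bayesian fitting gave K50, and unfolding free energy was derived against a sequence-predicted unfolded-state K50 and a shared folded-state K50, per protease or combined.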

| Sequence | folding stability dG unfold [kcal/mol] |
| --- | --- |
| SAEVIEKTLTETVIGDTVVTPSVVEFPDGSVVEKVTTVSPDGTVTVTTYYFPPDGVRTFLSTTTVPLDLSAG [r14_680_JUSTAS] | 0.939 ± 0.07 |
| SAGGSMKVKIEVEKTPKGYKVRITVEKDGKTYEFEFPEDMSLEEVLEKLKKELEKEGVEIEKIEIVSAGGSA [r2_497_TrROS_Hall] | 4.43 ± 0.26 |
| SAGGSAGGSKVKLTFTIPPGTTPEEAIAKAEELAKKLNIPIVKIDSIEYDPETGTVRIELELDSAGGSAGGS [r12_131_TrMRF] | 4.31 ± 0.068 |
| SAGGSAGGSAGGNYVVRIEHNGQPIMEQPFPGSLEDAKDYVKEIAQFFPPDKVKIEVYKFSAGGSAGGSAGG [r7_81_TrROS] | 0.292 ± 0.095 |
| SAGGPRVEVEEVELEGDYLVVRARVEVPLDDGTYEFELTLVLPVPPPPLPLPPVDPRFPRAPDDDLVSAGGS [r8_234_TrMRF] | 0.971 ± 0.13 |
| SAGGSAGGRVVLSAEEIEKLKPGDEIELLVRDKETGEWRRVKARVVRIERVGDRVYVEIEIEPESAGGSAGG [r6_753_TrROS_Hall] | 4.29 ± 0.12 |
| SAPKILKVETFPDGSIKVEIPLPETGAIVTITVDPDGNVVVEFYPPKSGKPVRKTIPGKTIEEVLKELGSAG [r14_760_TrMRF] | 1.63 ± 0.12 |
| SAGGSASLEELAEKLREKLPPEEAEKLRELLKELEEKGYEIVEIRIEVLPNGEKKVTIKLKVKKKPSAGGSA [r15_613_TrROS_Hall] | 3.41 ± 0.17 |
| SAGGDPNTARVVVLTGHPDVITPEQIRTLLENLGADEIKSVEVFTTPTSRVVRFVDSNGAPTVIFVPSAGGS [r8_86_TrMRF] | 1.88 ± 0.072 |
| SAGGKKKLVEITIKVPPGMTVEELIAEIAKKLPPGAKIVKVEYDKETKEIKIIVYDEKTKKKIEIKFSAGGS [r16_250_TrROS_Hall] | 1.64 ± 0.14 |
| SAGTIWIPVDELKELGIPPGDTAEEFKQQISDRLMEQGWTVKIPDIEVEPLDPNDGRVWVRINIEFKPPSAG [r5_23_TrROS] | 0.94 ± 0.17 |
| SAGGSAGGSAPGSMLRIPVSEEELKKKGLTPEELAKEIRERYPELPESVVVEFPPDGNIVIVESAGGSAGGS [r12_50_JUSTAS] | 1 ± 0.16 |
| SAGGKKVKIKVTIVIKVEPGESVEEIAKKLAEELGLKVEVKVEVVKRKDGSLYVVIEVEIELPEELKPSAGG [r13_590_TrROS_Hall] | 2.85 ± 0.56 |
| SAGGSAGGSAGGIYPGPGNLLYFTGEDDYVKVIKITPPDNTIKIDIEIVPKGEATKIPYSAGGSAGGSAGGS [r10_257_TrMRF] | -0.00595 ± 0.097 |
| SAGGSAGGEVKTIEIEIEITDEDGRKYRIKMEAEVLPNGEIIIRMEIEDEETNETYEMTIVLKPSAGGSAGG [r6_726_TrROS_Hall] | 4.35 ± 0.18 |
| SAGGSAMGTLRLGFVTGPDEEGRYEILDVTLEPGEPVLVTLRARFTFPDGDSVEVPFRFVVPPELLSAGGSA [r15_187_TrMRF] | 2.96 ± 0.12 |

| Sequence | folding stability dG unfold [kcal/mol] |
| --- | --- |
| SAGGSAMAPNVRPIPIFIDVPAEPFTRDPDGRIGLTPEELARRLAEEIRARTGAPIDTIVVHFHEPSAGGSA [r15_415_TrMRF] | 0.409 ± 0.092 |
| SAGGSAGGSGMTVVTLEAEPETAEEAVAAAIQAIRDALPADETIASVEVSFDPATGKVTVVVESAGGSAGGS [r12_308_JUSTAS] | 1.8 ± 0.12 |
| SAGGSEIKIEIKYDEETGELVVEITVPESEEEVKKLVEELKKLGVEKVEIVRDKKTKEYRIRVVFKSAGGSA [r2_358_TrROS_Hall] | 4.82 ± 0.57 |
| SAGGSAGGSKKPKAKIKKIEFFPEGNKIVALVEFPDKVIKEIVFENLPPEEAIKKALEFAKKGSAGGSAGGS [r20_181_TrMRF] | 1.31 ± 0.12 |
| SAGGETLTVTVLIKNKDEKNKYYKVEVKVTVEKNENGEKTLTIEMKITDKNGNKKTIKVNLKDIKIIDSAGG [r13_787_TrROS_Hall] | 3.69 ± 0.32 |
| SAGGGSTSTSTSTSTDPATGATTTTTTTTVPTPDGSGTVTTTTTTVPGAAPDTDTAPVTTTTTTTPTPSAGG [r13_715_JUSTAS] | 2.32 ± 0.21 |
| SAGKVKIVKIDKGKNKITIEFYDDGKKIATIPFPPNFPNTKVIAEVNEDGSIKVTFISGDKPIEITIDASAG [r5_533_TrMRF] | 2.59 ± 0.12 |
| SAGGSAGGSAGGKITFAPKTTLLLTATIPVTVYSLHPDGTLTTETRSATITFTIPPELLSAGGSAGGSAGGS [r10_383_TrMRF] | 3.64 ± 0.12 |
| SAMKVKVIVINPDGKPQEFEFEAEEGDPEKLVEEVEAEIKKLHPNSDIKFKAEVLEVKPDGEITILVSDSAG [r14_622_TrMRF] | 2.52 ± 0.14 |
| SAGGSAGGSAGPIVYPYGKYLVVYNPETGALVVVELDPDGKVKKVVVFGKDGPLVELDDASAGGSAGGSAGG [r17_385_TrMRF] | 3.14 ± 0.047 |
| SAGGSAKPDLVRTGPLLLPTAVVLPSVHFADPDVSVSLFRTPNGPPYLALAFIDPETGEPHIVLFPSAGGSA [r15_84_TrMRF] | 1.44 ± 0.09 |
| SAMVYPYLLRVYLPGSGEVVYFPASSLEEAVELLEEVAALPNVNSVDLYTPDGTKVHFLIDVPPEAFEESAG [r14_747_TrMRF] | 2.77 ± 0.066 |
| SAGGSAGGEIPPNIKKIETLPDDGWLMVKVDSPKDIREFFEDHGWEIKDVEEEGNTIHIPIKPKSAGGSAGG [r6_381_TrROS] | 0.79 ± 0.25 |
| SAGGSAGGSAGGAKTTTLGSESEEEIRAVAAKLPADSTITTNRPGGTSVITVSPNEIVTNSAGGSAGGSAGG [r7_560_JUSTAS] | 0.836 ± 0.055 |
| SAGGSAGGSAGGMKVYRIGPDLYLVENEDGSLRIYNRDTGKVFTFKPGETITITIPPELLSAGGSAGGSAGG [r7_299_TrROS_Hall] | 2.7 ± 0.11 |
